The test addresses SARS-CoV-2 S1 subunit (amino acids 16-685 of SEQ ID NO:1, i.e. SEQ ID NO:4) with a carboxy terminal … (SARS-CoV-2, UniProt P0DTC2 16-685).

B1: antibody S1D2 (fully human recombinant monoclonal IgG1, no Fc mutation) (antibody, V domains shown)
VH: EVQLVESGGGLIQPGGSLRLSCAASGFTVSSNYMSWVRQAPGKGLEWVSIIYPGGSTNYADSVKGRFTISRDNSRNTLYLQMNSLRAEDTAVYYCARELGYYGMDVWGQGTTVTVSS
VL: DIQMTQSPSSVSASVGDRVTITCRASQGISTWLVWYQQKPGKAPNLLIYGASSLQSGVPSRFSGSGSGTDFTLTISSLQPEDFATYYCQQANSFPYTFGQGTKLEIK
For B1, half-maximal inhibition (IC50) required 1.87 nM.

Source of the values: patent US20230406907A1 (SORRENTO THERAPEUTICS, published 2023).
